According to patent publication US20150023943, “REF Nuclease for Site-Specific REF-Mediated DNA Cleavage” (Wisconsin Alumni Research Foundation, published 2015):

T1: φW39 ΔN21 Ref (Bacteriophage phi W39)
T1 chain: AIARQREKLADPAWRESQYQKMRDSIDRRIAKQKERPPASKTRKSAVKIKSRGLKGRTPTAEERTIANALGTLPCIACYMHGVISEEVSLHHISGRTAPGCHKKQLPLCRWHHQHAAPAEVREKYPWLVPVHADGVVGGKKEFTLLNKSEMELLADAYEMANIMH

T2: P1 Ref (wild type) (Bacteriophage P1, UniProt P35926 SEQ:1-186)
T2 sequence: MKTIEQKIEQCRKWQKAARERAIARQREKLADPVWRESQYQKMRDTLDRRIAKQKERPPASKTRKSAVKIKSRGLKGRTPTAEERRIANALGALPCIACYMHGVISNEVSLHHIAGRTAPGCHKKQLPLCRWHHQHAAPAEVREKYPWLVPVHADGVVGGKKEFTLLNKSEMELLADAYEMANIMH

T3: P1 ΔN76 Ref (Bacteriophage P1, UniProt P35926 SEQ:77-186)
T3 chain: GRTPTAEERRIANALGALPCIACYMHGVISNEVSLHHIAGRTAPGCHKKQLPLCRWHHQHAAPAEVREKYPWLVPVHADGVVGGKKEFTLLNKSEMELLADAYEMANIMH

T4: φW39 ΔN47 Ref (Bacteriophage phi W39)
T4 chain: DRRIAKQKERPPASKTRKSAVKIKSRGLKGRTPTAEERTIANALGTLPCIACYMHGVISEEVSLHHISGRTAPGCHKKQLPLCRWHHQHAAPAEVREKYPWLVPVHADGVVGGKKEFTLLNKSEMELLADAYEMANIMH

T5: φW39 ΔN74 Ref (Bacteriophage phi W39)
T5 chain: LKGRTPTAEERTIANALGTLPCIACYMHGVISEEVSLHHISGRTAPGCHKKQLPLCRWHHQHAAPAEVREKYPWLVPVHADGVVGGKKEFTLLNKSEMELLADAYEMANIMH

B1: AJM25 71mer ssDNA (ssDNA)
DNA: CAGAAGTAAGTTGGCCGCAGTGTTATCACTCATGGTTATGGCAGCACTGCATAATTCTCTTACTGTCATGC
B2: AJM25/AJG52 71 bp dsDNA (dsDNA)
DNA 1: B1 DNA
DNA 2: GCATGACAGTAAGAGAATTATGCAGTGCTGCCATAACCATGAGTGATAACACTGCGGCCAACTTACTTCTG

Experiments:
φW39 ΔN21 Ref [1] = target: T1, φW39 ΔN21 Ref; assay: FP; apparent Kd; 119±9; 15 mM Mg acetate, pH 8.5, 25 C; conditions: tags: expressed from pET21A with NdeI start Met; label: 5'-6FAM
Description: (§1) Fluorescence polarization DNA binding assay—Ref (or a variant) at 0.5-10,000 nM was incubated with 2 nM AJM25 71mer ssDNA or AJM25 annealed with AJG52 71mer to make dsDNA substrate in 25 mM Tris-acetate (pH 8.5), 3 mM potassium glutamate, 15 mM magnesium acetate, and 5% w/v glycerol at room temperature for 15 minutes. Fluorescence anisotropy (FA) was measured at 25° C., using a Tecan Infinite M1000 instrument with 470-nm excitation and 535-nm emission wavelengths for at least three replicates; the average FA values were plotted with one standard deviation of the mean shown as error. Prism software was used to convert FA values to the fraction of DNA bound and apparent dissociation constants were the Ref concentration (or variant) needed for 50% binding saturation.
(§2) Fluorescence polarization assays with labeled DNA substrates (ssDNA and dsDNA) were carried out to determine dissociation constants of each of the N-terminal domain truncations. […] For the P1 ΔN76 Ref protein, this is consistent with EMSA data from the earlier study (Gruenig et al 2011, supra). […] This indicates the presence of a critical sequence domain between residues 47-74.

P1 Ref (wild type) [2] = target: T2, P1 Ref (wild type); assay: FP; apparent Kd; 14±1; 25 mM Tris-acetate pH 8.5, 15 mM Mg acetate, 3 mM K glutamate, 25 C; conditions: label: 5'-6FAM
Description: as §1, §2

P1 ΔN76 Ref [3] = target: T3, P1 ΔN76 Ref; assay: FP; no binding detected up to 10,000 nM; consistent with earlier EMSA; conditions: label: 5'-6FAM
Description: as §1, §2

φW39 ΔN47 Ref [4] = target: T4, φW39 ΔN47 Ref; assay: FP; apparent Kd; 113±7; 15 mM Mg acetate, pH 8.5, 25 C; conditions: tags: expressed from pET21A with NdeI start Met; label: 5'-6FAM
Description: as §1, §2

φW39 ΔN74 Ref [5] = target: T5, φW39 ΔN74 Ref; assay: FP; no binding detected up to 10,000 nM; conditions: tags: expressed from pET21A with NdeI start Met; label: 5'-6FAM
Description: as §1, §2

P1 Ref (wild type) [6] = target: T2, P1 Ref (wild type); assay: FP; apparent Kd; 14±1; cooperative; 15 mM Mg acetate, pH 8.5, 25 C; conditions: label: 5'-6FAM on AJM25
Description: as §1
(§3) The truncations were also assayed with 71mer dsDNA substrate. The dsDNA substrate was made by annealing the labeled 71mer oligonucleotide (AJM25) with the complementary 71mer oligonucleotide (AJG52). […] Instead, an increase in KD is seen as more of the N-terminus is truncated (FIG. 2B, 2C). Also, there is an apparent cooperativity when binding to dsDNA, and this cooperativity decreases as the N-terminus is truncated (FIG. 2C). This provides evidence that the N-terminal region of Ref is necessary for DNA binding. Specifically, the amino acids between position 47 and 74 are particularly important.

φW39 ΔN74 Ref [7] = target: T5, φW39 ΔN74 Ref; assay: FP; no observable binding; conditions: tags: expressed from pET21A with NdeI start Met; label: 5'-6FAM on AJM25
Description: (§4) The truncations were also assayed with a 71mer dsDNA substrate made by annealing the labeled 71mer oligonucleotide (AJM25) with the complementary 71mer oligonucleotide (AJG52). […] As the second motif and part of the third motif were removed in the φW39 ΔN59 and φW39 ΔN66, dsDNA binding was further reduced. As with the ssDNA, φW39 ΔN74 and P1 ΔN76 Ref had no observable dsDNA binding. Overall we provide evidence that the N-terminal region of Ref is necessary for DNA binding, and the putative charge motifs may contribute collectively to that function.
(§5) Ref proteins at 0.5-10,000 nM were incubated with 2 nM AJM25 71mer ssDNA or AJM25 annealed with AJG52 71mer to make a linear 71 bp dsDNA substrate in 25 mM Tris-acetate (pH 8.5), 3 mM potassium glutamate, 15 mM magnesium acetate, and 5% w/v glycerol at room temperature for 15 minutes. Fluorescence anisotropy (FA) was measured at 25° C., using a Tecan Infinite M1000 instrument with 470-nm excitation and 535-nm emission wavelengths for at least three replicates. The average FA values were plotted with one standard deviation of the mean shown as error. Prism software was used to convert FA values to the percent of DNA bound and apparent dissociation constants were determined using one-site, specific binding with Hill coefficient.

P1 ΔN76 Ref [8] = target: T3, P1 ΔN76 Ref; assay: FP; no observable binding; conditions: label: 5'-6FAM on AJM25
Description: as §4, §5

φW39 ΔN21 Ref [9] = target: T1, φW39 ΔN21 Ref; assay: FP; apparent Kd; 56±3; 15 mM Mg acetate, pH 8.5, 25 C; conditions: tags: expressed from pET21A with NdeI start Met; label: 5'-6FAM on AJM25
Description: as §1, §3

φW39 ΔN47 Ref [10] = target: T4, φW39 ΔN47 Ref; assay: FP; apparent Kd; 143±12; 15 mM Mg acetate, pH 8.5, 25 C; conditions: tags: expressed from pET21A with NdeI start Met; label: 5'-6FAM on AJM25
Description: as §1, §3

Row | Binder | Kd (φW39 ΔN21 Ref [1]) [nM] | Kd (P1 Ref (wild type) [2]) [nM] | binding result (P1 ΔN76 Ref [3]) | Kd (φW39 ΔN47 Ref [4]) [nM] | binding result (φW39 ΔN74 Ref [5]) | Kd (P1 Ref (wild type) [6]) [nM] | binding result (φW39 ΔN74 Ref [7]) | binding result (P1 ΔN76 Ref [8]) | Kd (φW39 ΔN21 Ref [9]) [nM] | Kd (φW39 ΔN47 Ref [10]) [nM]
1 | B1 | 119 | 14.4 | no binding | 113 | no binding |  |  |  |  | 
2 | B2 |  |  |  |  |  | 13.5 | no binding | no binding | 56.1 | 142
